This assay addresses (SIM)m, m = 1. Kind of assay: ITC. (In general: ITC needs no label: the signal is the heat of the interaction.)

The text below walks through data of paper PMC4967043.

As to “(SUMO)m, m = 1 (from UniProt P55854 1-92) (natural protein)”, the Kd came out at 10 µM.

The term Kd denotes a measure of binding affinity in units of concentration. Lower therefore signals higher affinity.
